Test: soluble on expression in E. coli; label from the status in PepcDB or PDB records

| Sequence | soluble on expression in E. coli |
| --- | --- |
| NKNFSWNTDWTYSLNREKIKALNSGVTRDEGNLWFVGSPTQVFYDYKKIGIWQLGEEVQAKAFGGFKPGDIKVADMSPKGSEGEGVFSTDDRVIFSRVPKYTFGITNNIIYKNFDLMFFIYGRIGQYVKDAYTQLYKPSALENSAPVNYWTPENPSNEYPRPNSGYSTNSYLLQSSLAFRKASFVKIRDITLGYTLPKEWTSKMMVQKLRIYCSLNNFITFTDFPNYDPESNGSMDFPLAKQVLFGINLSL | not soluble |
| MAHHHHHHMPSWCLIESDPAVFTELIQRFGAQGVAVEEIVQLEQEYLRVHTNVYGLILLFKWKARKEGAATDGVVVPDAPVFFVQQTVNNACATLSIVNILLNHKESIELGEVLGNFLSFTQDMNPYLRGTQVGECDALREAHNSFAPVELFSLDHSVPDAGDAYHFVSFVYKNSAIWELDGLQEGPILASDASDENYRDKLMEVVRKRIRDHSAEDTTGAGQGISFSLMAVVDDPLVLLERRIYEATLQEAPTHYLEEQLNQLTKQRAREKLENQRRRHNYVPMIVELLKALAEKGQLKGILDDALAKKSGQGAKQ | soluble |
| MAHHHHHHMCVSVCACARPCSLLISLFEKRQHGWGCCNSFTFEHVCSADAVRCLFFFVCDSPSSSLPPSLFTRHSPLLFSSCPFACPSSVHPQRQDNTRRRAEQPCAQALWIRRGINRIGNLLVPNDNYCWFEDFFTPVLESVQEAQRASRWKTHTAPSEFIEAMGAAIAKNHPDTCTSSLVYWCYRNGISVFSPAFTDGSMGDMIYFYNFSHKGLVVDPLEDVVRLRKLAAKEKGRNLAIVLGGGLPKHHLLRNVSMDAVVMVTTGLEADGCVSSGVLADDVACGLLREETETVRVQGDATVVFPLMLIAEKAATLEGAAA | not soluble |
| MKRFFALVHKDEDSAFGVQFPDFEGLFSAADEEENLIINATEALQLYCEDMDTVPVPLKFEEVIQQKAVKKALSEGAFLIQVPFIENDSEVVRTNISIERGLLRAIDNCAQERGLTRSAFLATAARHELNI | not soluble |
| MSDASKRAAFDQYGHAGVDPSMGGGGAGFGGANFSDIFGDVFSDFFGGGGRGGGRGGAQRGSDLRYTLELNLEEAVRGTTVSIRVPTLVNCQPCDGSGAKKGSTPSTCPTCGGIGQVRMQQGFFSVQQTCPRCHGQGKIITDPCTSCHGEGRVEEYKTLSVKVPAGVDTGDRIRLSGEGEAGTHGGPTGDLYVVISVREHEIFQRDGKHLYCEVPISYTDAALGGELEVPTLDGRVKLKIPEGTQTGKQFRLRGKGVAPVRGGGAGDLLCRVAVETPVNLSRRQRELLEELRDSLEGDSSHSPKASGWFDGVKRFFGDLLEHHHHHH | not soluble |
| MAEECSGNCDSCGSSSDCSDTKKMMEQQNAQIRDNMSKIKYKIAVMSGKGGVGKSTVTVNLAATLNMMGYKVGVLDGDIHGPNIPQMLGVDQIQPMADENGIYPVSTPQGIKTMSIGYFLPDKNTPIIWRGPKASGAIRQFLSDVNWGELDFLLIDTPPGSGDIQITTLQAIPDIDGVVIVTTPEEVSVLDARKSVSAANTLEIPIIGIVENMGGFVCPECDKVIDIFGKGGGEKAAKELNVFFLGRIPLDIKARVASDRGVPMVTMDCKASEEFKKVVNTVLERIKKELEHHHHHH | soluble |
| MSRYCSQCGKSRKACICQWIVPLASGVELIILQHTSEAHRPLGTARILNLSLKNCTCLIGEDFSDDAQLNALLTDEAYQHFILYPSEQSQCLSDIACTESERTRKTRLILLDGTWKKAYKMWQLSTNLHTLTTVKLPEDLQGHYTIRKAPSDNSLSTVEAGFYALSLLEPDNDFSPLLNAFDRMIEFQIAQMPPGVFEKNYLNKLEHHHHHH | not soluble |
| MSEASRDDYKIQSFDAQTQQLLKTALKDPGAVDLERVANVIVDHSLQDCVFSKEAGRMCYAIIQAESKQAGQSVFRRGLLNRLQKEYDAREQLRACSLQGWVCYVTFICNIFDYLRVNNMPMMALVNPVYDCLFQLAQPESLSREEEVDCLVLQLHRVGEQLEKMNGQRMDELFILIRDGFLLPTDLSSLARLLLLEMIEFRAAGWKTTPAAHKYYYSEVSD | not soluble |
| MAHHHHHHMICEVLQCNRYPPCCGQYPNGEVNVVLPRSVRGDDLFVLQSLVRCDRVGLSHSGTLMELALMIHAARASSAARITAVIPYISFTESVSSMAAVAEILESMGCQHVITVDMPIDQVEGMFSVPLELISARYEFVQYIANQLTAEGHDFRNITVVAPNGAGVHRAKNFADALMQYKKLSPDEQFVPLCTAVRRQVYRGLQDTVLNINHCGANVGSTRAFEQALLQQEQGICAIQDDGDTTITSEGIDLVGDVQGKLCIVVDTSVDEATEICQTACKLREEGASRIILIATHFIISGRAVERLIESPIDLIVVTDSVEHDEVFKNPHIARRLRVLPIAPLLARAIEKLHTENSLTTLFEK | not soluble |
| MGHHHHHHSHMNFAGKHVGFGLTGSHCTYHEVLPQMERLVELGAKVTPFVTHTVQTTDTKFGESSEWINKIKQITEEPIVDSMVKAEPFGPKTPLDCMVIAPMTGNSTSKFANAMTDSPVLMGAKATLRNGKPVVVGISTNDALGLNGINIMRLMATKNIYFIPFGQDNPQVKPNSLVARMEALPETIEAALRGQQYQPVLIEKFRD | soluble |
| GSRVALVTGANRGIGLAIARELCRQFSGDVVLTARDVARGQAAVQQLQAEGLSPRFHQLDIDDLQSIRALRDFLRKEYGGLNVLVNNAAVAFKSDDPMPFDIKAEMTLKTNFFATRNMCNELLPIMKPHGRVVNISSLQCLRAFENCSEDLQERFHSETLTEGDLVDLMKKFVEDTKNEVHEREGWPNSPYGVSKLGVTVLSRILARRLDEKRKADRILVNACCPGPVKTDMDGKDSIRTVEEGAETPVYLALLPPDATEPQGQLVHDKVVQNW | soluble |
| MSQQVIIFDTTLRDGEQALQASLSVKEKLQIALALERMGVDVMEVGFPVSSPGDFESVQTIARQVKNSRVCALARCVEKDIDVAAESLKVAEAFRIHTFIATSPMHIATKLRSTLDEVIERAIYMVKRARNYTDDVEFSCEDAGRTPIADLARVVEAAINAGATTINIPDTVGYTMPFEFAGIISGLYERVPNIDKAIISVHTHDDLGLAVGNSLAAVHAGARQVEGAMNGIGERAGNCSLEEVIMAIKVRKDILNVHTAINHQEIWRTSQLVSQICNMPIPANKAIVGSGAFAHSSGIHQDGVLKNRENYEIMTPESIGLNQIQLNLTSRSGRAAVKHRMDEMGYKESEYNLDNLYDAFLKLADKKGQVFDYDLEALAFIGKQQEEPEHFRLDYFSVQSGSNDIATAAVKLACGEEVKAEAANGNGPVDAVYQAINRITDYNVELVKYSLTAKGHGKDALGQVDIVANYNGRRFHGVGLATDIVESSAKAMVHVLNNIWRATEVEKELQRKAQHNENNKETV | not soluble |
| MEAPEFKDFAKTMVDFIAEYLENIRERRVLPEVKPGYLKPLIPDAAPEKPEKWQDVMQDIERVIMPGVTHWHSPKFHAYFPTANSYPAIVADMLSGAIACIGFTWIASPACTELEVVMMDWLGKMLELPAEFLACSGGKGGGVIQGTASESTLVALLGAKAKKLKEVKELHPEWDEHTILGKLVGYCSDQAHSSVERAGLLGGVKLRSVQSENHRMRGAALEKAIEQDVAEGLIPFYAVVTLGTTNSCAFDYLDECGPVGNKHNLWIHVDAAYAGSAFICPEYRHLMKGIESADSFNFNPHKWMLVNFDCSAMWLKDPSWVVNAFNVDPLYLKHDMQGSAPDYRHWQIPLGRRFRALKLWFVLRLYGVENLQAHIRRHCNFAKQFGDLCVADSRFELAAEINMGLVCFRLKGSNERNEALLKRINGRGHIHLVPAKIKDVYFLRMAICSRFTQSEDMEYSWKEVSAAADEMEQEQ | soluble |
| MSVSLEQTLGFRIKVTNVLDVVTEGRLYSFNSSNNTLTIQTTKKNQSPQNFKVIKCTFIKHLEVIGDKPSFNSFKKQQIKPSYVNVERVEKLLKESVIASKKKELLRGKGVSAEGQFIFDQIFKTIGDTKWVAKDIIILDDVKVQPPYKVEDIKVLHEGSNQSITLIQRIVERSWEQLEQDDGRKGG | soluble |
| MDSIERKKTKPYNINEKEILDIVAAKGSYLSSISENLEEVPPHKESSSRAESKKTITDEEVKKYIEALLNNFSSNRRKPLHIDAQVYECISDIVWAVRRKDFTVSGVISRILVEHIKENAGMIKKITGRDYKLLQP | not soluble |
| MSMLLGDHPELRSRAREIASLAARVVEQVNSMPAGEQKRLLSEQYPELARFEEQREKGDKGLPPLPGAVEGRVKLRFAPNPDFVIHMGNARPAIVNHEYARMYKGRMVLRFEDTDPRTKTPLREAYDLIRQDLKWLGVSWDEEYIQSLRMEVFYSVARRAIERGCAYVDNCGREGKELLSRGEYCPTRDLGPEDNLELFEKMLEGEFYEGEAVVRMKTDPRHPNPSLRDWVAMRIIDTEKHPHPLVGSRYLVWPTYNFAVSVDDHMMEITHVLRGKEHQLNTEKQLAVYRCMGWRPPYFIHFGRLKLEGFILSKSKIRKLLEERPGEFMGYDDPRFGTIAGLRRRGVLAEAIRQIILEVGVKPTDATISWANLAAANRKLLDERADRIMYVEDPVEMEVELAQVECRAAEIPFHPSRPQRKRRITLCTGDKVLLTREDAVEGRQLRLMGLSNFTVSQGILREVDPSLEYARRMKLPIVQWVKKGGEASVEVLEPVELELRRHQGYAEDAIRGYGVDSRLQFVRYGFVRVDSVEDGVYRVIYTHK | soluble |
| MGSDKIHHHHHHVFKYMKKLLIVTTVPETLATILQSQPTFLNEEYEVFLASSTGIQQVADIENVRCFTINMYRGYSPFKDLFSIFKMFYLLLRIKPHIIHSYTPKAGLVCAIAAYFARVPHRIHTFTGLLFPTATGFKHLILKFTDKLVIYLNTHIVCEGYGVWRQFYRFGFSESKFEVIGNGNIAGVDLCYFDPDIVDLSVKSNLISSYKLEGCKVFLYVGRLNVDKGIKELVNAFINLNDNSKLLIVGALDTTAPPDDDTLLKIKVNPNIIDFGFLNDIRPIMSISSCLILPSYREGFPNVVLQAGAMELPCIVTDIPGCNEIISHDVNGWLVKPKCIDALESAMNDFLSLDNAKLLSVKKEASENIKTNFERSFYQKKLLNFYNKVLEND | not soluble |
| MIIDIHGHYTTAPKALEDWRNRQIAGIKDPSVMPKVSELKISDDELQASIIENQLKKMQERGSDLTVFSPRASFMAHHIGDFNVSSTWAAICNELCYRVSQLFPDNFIGAAMLPQSPGVDPKTCIPELEKCVKEYGFVAINLNPDPSGGHWTSPPLTDRIWYPIYEKMVELEIPAMIHVSTSCNTCFHTTGAHYLNADTTAFMQCVAGDLFKDFPELKFVIPHGGGAVPYHWGRFRGLAQEMKKPLLEDHVLNNIFFDTCVYHQPGIDLLNTVIPVDNVLFASEMIGAVRGIDPRTGFYYDDTKRYIEASTILTPEEKQQIYEGNARRVYPRLDAALKAKGKAAALEHHHHHH | not soluble |
| MGSDKIHHHHHHMNLNPIINNFQRPIRKVQICCILIFSCAACSLNIPYENQYSDPDAITTVTAARELLASAYDAIPKPEFSLSVLSDDFQPTFLINLNADLNNLYKWHPKPMEDLSNSLWEKYYSAIAIANTVLERIHYVSPISDSDKQELQCIVSEAKTLKAYCYFNLLRLFAPTYPEGPEKDGIILKERFELAFLKRSSISECVNAIRQLLTEAVTVDNRPSQVYWFSRQSAYYLLAALELYAENYDKAEEYALKILSSTNAYNVLAPVHYKKLWEQEPCEECIFSLHTTNSYYTDMNYERKKGDYFTINSTLTQLYTANDIRYEATVYPQEMPGESIGETLPVLYLGKYNKQNWNYKPIQYINKLRVSGICFILAEAYCQDQKGHDALALEVINNYLAQREAPLLDTSLSGAPLLKAILQEKWKEFAGEGERYFDLKRYRKSLLSDWNLSATMKNKPIKPDDYRWLFPIPKGEYLYNENISQNAGWTKVEK | not soluble |
| MAHHHHHHMYEKTHVTTYPVMGCQISVGTTASRRSKGLNATRSGVDGALTSGTVDGRDPKSTGADNSVSLAYAVPAVKPVTYNDYRGFQVTMVNGTLAKINNICRWLDTALDKREKNGGWCMDVLAESVSSGKMETSFYCESIVQASHHVTHYCGQERANGVEYFAEVHSQQVFEKSAVSRTFDCPSAKFVYNSRFEEIPRQSDITTTQLNKETSDSGIPNGREAMIRYSPTSSEDGGRLNE | not soluble |

From the DeepSol protein solubility set
